Data set [1] can be described thus: Control incubation in buffer without S9. Conditions: 5 μM ADC, pH 5.0. As for the experimental part:
Samples were analysed using LC/QE-orbitrap-MS.
The control incubations include each ADC without the addition of S9.

Data set [2] addresses T1, Papain (a Cathepsin B surrogate) (Carica papaya, UniProt P00784).
T1 sequence (P00784 134-345): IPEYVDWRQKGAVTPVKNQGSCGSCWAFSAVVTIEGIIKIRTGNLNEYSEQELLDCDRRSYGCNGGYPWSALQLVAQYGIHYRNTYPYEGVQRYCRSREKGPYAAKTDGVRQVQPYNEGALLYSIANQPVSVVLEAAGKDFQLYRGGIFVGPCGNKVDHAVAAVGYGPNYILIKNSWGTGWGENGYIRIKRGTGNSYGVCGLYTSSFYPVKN
Conditions: reaction with papain, 24 hours and 96 hours.

Data set [3] is described as follows: Comparative repeat-dose rat toxicity study. In kind it is in vivo. Conditions: DAR 8 on a Trastuzumab backbone, 20 or 60 mg/kg.
Data set [4] concerns MDA-MB-468, PC3, DU145 and OVMZ-6 cells. Briefly: Binding to cells after CDCP1 cleavage. Conditions: mAbs binding membrane proximal or distal regions of CDCP1. From the text:
FIG. 45E is an image of polyacrylamide gel binding assay. […] The sequences of the light chain variable region, heavy chain variable region, and CDRs (SEQ ID NOs: 15-22) of “Sequence 2” can be found in Table 2B.

As to `CC[C@@]1(O)C(=O)OCc2c1cc1n(c2=O)Cc2c-1nc1cc(F)c(C)c3c1c2[C@@H](NC(=O)[C@H](C)NC(=O)[C@@H](NC(=O)CCOCCOCCOCCOCCOCCOCCOCCOCCNC(=O)CCN1C(=O)C=CC1=O)C(C)C)CC3` [Compound 30], the “LC/MS peak area of released payload (Exatecan; 4NH2-Exatecan; DXd; DM1, per ADC)” value is reported as 26,179 in data set [1] (Buffer without S9, 180 min); 51,267 in data set [1] (Buffer without S9, 360 min); 59,452 in data set [1] (Buffer without S9, 1440 min). In data set [2], the rate of cleavage result is given as “slower rate compared to other TOPO1 inhibitors having Cathepsin B cleavage mechanisms”. Also, the “changes in hemopoietic system (red cell parameters)” value in data set [3] is recorded as “negligible effects”. In data set [3] (IV once every 3 weeks, two doses), the tolerability entry was “well tolerated”.

B1: mAbs-CDCPA1 Sequence 1: "mAbs-CDCPA1 Sequence 1 (proximal region)" antibody binding the membrane proximal region of CDCP1 (antibody, V domains shown)
VH: EVQLLESGGGLVQPGGSLRLSCAASGFTFSNYAMNWVRQAPGKGLEWVSAISGGGGSTYYADSVKGRFTISRDNSKNTLYLQMNSLRAEDTAVYYCAKESITMVRGVMDYYGMDVWGQGTTVTVSS
VL: DIQLTQSPSFLSASVGDRVTITCRASQGISSYLAWYQQKPGKAPKLLIYAASTLQGGVPSRFSGSGSGTEFTLTISSLQPEDFATYYCQHLNRFPRTFGQGTKVEIK
Turning to B1, the “binding to cells with cleaved CDCP1” value in data set [4] is “did not show significant difference in binding to CDCP1+ cells”.

These data come from US20260263614A1, “ANTIBODY DRUG CONJUGATES THAT BIND CDCP1 AND USES THEREOF” (Pheon Therapeutics Ltd, priority 2022, published 2026).
